Results published in paper PMC9537018.

B1: Staphylococcal nuclease domain-containing protein 1 (SND1): N283Q (protein)
parent chain: MASSAQSGGSSGGPAVPTVQRGIIKMVLSGCAIIVRGQPRGGPPPERQINLSNIRAGNLARRAAATQPDAKDTPDEPWAFPAREFLRKKLIGKEVCFTIENKTPQGREYGMIYLGKDTNGENIAESLVAEGLATRREGMRANNPEQNRLSECEEQAKAAKKGMWSEGNGSHTIRDLKYTIENPRHFVDSHHQKPVNAIIEHVRDGSVVRALLLPDYYLVTVMLSGIKCPTFRREADGSETPEPFAAEAKFFTESRLLQRDVQIILESCHNQNILGTILHPNGNITELLLKEGFARCVDWSIAVYTRGAEKLRAAERFAKERRLRIWRDYVAPTANLDQKDKQFVAKVMQVLNADAIVVKLNSGDYKTIHLSSIRPPRLEGENTQDKNKKLRPLYDIPYMFEAREFLRKKLIGKKVNVTVDYIRPASPATETVPAFSERTCATVTIGGINIAEALVSKGLATVIRYRQDDDQRSSHYDELLAAEARAIKNGKGLHSKKEVPIHRVADISGDTQKAKQFLPFLQRAGRSEAVVEYVFSGSRLKLYLPKETCLITFLLAGIECPRGARNLPGLVQEGEPFSEEATLFTKELVLQREVEVEVESMDKAGNFIGWLHIDGANLSVLLVEHALSKVHFTAERSSYYKSLLSAEEAAKQKKEKVWAHYEEQPVEEVMPVLEEKERSASYKPVFVTEITDDLHFYVQDVETGTQLEKLMENMRNDIASHPPVEGSYAPRRGEFCIAKFVDGEWYRARVEKVESPAKIHVFYIDYGNREVLPSTRLGTLSPAFSTRVLPAQATEYAFAFIQVPQDDDARTDAVDSVVRDIQNTQCLLNVEHLSAGCPHVTLQFADSKGDVGLGLVKEGLVMVEVRKEKQFQKVITEYLNAQESAKSARLNLWRYGDFRADDADEFGYSR
B2: Staphylococcal nuclease domain-containing protein 1 (SND1): N50Q (protein)
parent chain: B1 parent chain
B3: Staphylococcal nuclease domain-containing protein 1 (SND1): N168Q (protein)
parent chain: B1 parent chain
B4: Staphylococcal nuclease domain-containing protein 1 (SND1): N416Q (protein)
parent chain: B1 parent chain
B5: Staphylococcal nuclease domain-containing protein 1 (SND1): tunicamycin (protein)
parent chain: B1 parent chain

Experiment: confocal colocalisation with ER marker CNX
Conditions: glycan lost; control: WT-SND1-EGFP

Protein	localisation_or_trafficking
B1	no change
B2	increases
B3	no change
B4	no change

Experiment: confocal colocalisation with Golgi marker GM130
Conditions: glycan lost; control: WT-SND1-EGFP

Protein	localisation_or_trafficking
B1	no change
B2	decreases
B3	no change
B4	no change

Experiment: immunoblot of protein level, rescue by MG132 or CQ
Conditions: glycan lost; control: untreated WT-SND1-EGFP

Protein	degradation_or_half_life
B5	decreases
B2	decreases
